Assay results as given in patent US20260242478A1 (published 2026).
Where no end group is shown, it is not given here.

B1: Phage-2934 (peptide)
peptide: EFNWCRPLWMCVGF
modifications: cysteine pairing not given here; also: peptide displayed as fusion to phage pIII
notes: Peptide-180 library clone, tested as clonal phage (peptide fused to pIII of the bacteriophage)
B2: Phage-2935 (peptide)
peptide: IHPVCKPDWMCAGF
modifications: cysteine pairing not given here; also: peptide fused to pIII
notes: Peptide-180 library clone, tested as clonal phage (peptide fused to pIII)
B3: Phage-2936 (peptide)
peptide: IDPMCKPLWMCAGF
modifications: cysteine pairing not given here; also: peptide displayed as fusion to phage pIII
notes: as for B2
B4: Phage-2937 (peptide)
peptide: VFPMCKPAWMCLGF
notes: as for B2
B5: Phage-2938 (peptide)
peptide: HVPKCVPQWMCIGF
notes: as for B2
B6: Phage-2906 (peptide)
peptide: VEPSCVPYWMCLGF
modifications: cysteine pairing not given here; also: peptide displayed as fusion to phage pIII
notes: also called peptide-180 library clone
B7: Phage-2905 (peptide)
peptide: PSHYCVPAWMCAGF
modifications: cysteine pairing not given here; also: peptide displayed as fusion to phage pIII
B8: Phage-2923 (as printed at r2443/r2444; SEQ ID NO: 3238) (peptide)
peptide: VWPRCEPQWMCAGF
modifications: cysteine pairing not given here; also: peptide displayed as fusion to phage pIII
notes: tested as crude phage supernatant; The label 2923 is printed twice (r2444 and r2446); by the order this row is probably Phage-2922; also called probably Phage-2922

target: T1, 006 PSMA Fab (biotinylated (site not stated)); test: clonal phage ELISA on biotinylated PSMA Fab captured on neutravidin, anti-M13-HRP detection;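 also: crude clonal phage supernatants added to wells preincubated with PSMA antigen in blocking buffer or with blocking buffer alone, brief binding period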
T1 construct: also called Anti-PSMA Fab

| Binder | Phage binding ELISA signal, Anti-PSMA Fab |
| --- | --- |
| B1 | 2.29 |
| B2 | 2.29 |
| B3 | 2.29 |
| B4 | 2.29 |
| B5 | 2.29 |

target: T1, 006 PSMA Fab; test: clonal phage ELISA on captured PSMA Fab, wells pre-incubated with PSMA antigen as competitor
Method: (§1) Clonal phage were harvested as crude supernatants and screened via standard ELISAs. […] Prior to the addition of clonal phage. wells were incubated with blocking buffer and PSMA antigen or blocking buffer alone. Without washing or aspirating, clonal phage supernatants were then added to the wells and incubated for a short time. Wells were then washed followed by detection of bound phage using a horse radish conjugated anti-M13 antibody.

| Binder | Phage binding ELISA signal, Anti-PSMA Fab in presence of PSMA |
| --- | --- |
| B1 | 0.157 |
| B2 | 0.0823 |
| B3 | 0.145 |
| B4 | 0.319 |
| B5 | 0.202 |

target: T2, Anti-PSMA Fab; test: phage ELISA; PSMA Fab on plate pre-incubated with PSMA antigen (competitor), anti-M13-HRP detection
T2 construct: Biotinylated and captured on neutravidin coated plates in the panning ELISA; also called 006 PSMA Fab
Method: as §1

| Binder | Phage binding ELISA signal, Anti-PSMA Fab in presence of PSMA |
| --- | --- |
| B6 | 0.0835 |
| AEMRCIPEWMCSGF (also called peptide-180 library clone) [Phage-2907] | 0.118 |
| LGLACIPEWMCVGF (also called peptide-180 library clone) [Phage-2908] | 0.0789 |
| GEPVCKPAWMCEGF (also called peptide-180 library clone) [Phage-2909] | 0.128 |
| AVPLCMPKWMCTGF (also called peptide-180 library clone) [Phage-2910] | 0.0971 |
| EKPVCVPSWMCTGF (also called peptide-180 library clone) [Phage-2911] | 0.098 |
| AVHYCQPSWMCTGF (also called peptide-180 library clone) [Phage-2912] | 0.0814 |
| GERWCTPPWMCVGL (also called peptide-180 library clone) [Phage-2913] | 0.116 |
| GLALCKPEWMCIGF (also called peptide-180 library clone) [Phage-2914] | 0.0815 |
| GGLLCKPAWMCNWL (also called peptide-180 library clone) [Phage-2915] | 0.116 |
| VDRMCVPKWMCEGL (also called peptide-180 library clone) [Phage-2916] | 0.0971 |
| LDVLCKPTWMCMGF (also called peptide-180 library clone) [Phage-2917] | 0.0821 |
| LPRICVPEWMCLGF (also called peptide-180 library clone) [Phage-2918] | 0.0919 |
| VDPMCIPRWMCSFL (also called peptide-180 library clone) [Phage-2919] | 0.0867 |

target: T2, Anti-PSMA Fab; test: phage ELISA; biotinylated PSMA Fab on neutravidin plate, clonal phage supernatant, anti-M13-HRP detection;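 also: wells were preincubated with blocking buffer containing PSMA antigen or with blocking buffer only, then phage supernatant was added without washing for a brief incubation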
Method: as §1

| Binder | Phage binding ELISA signal, Anti-PSMA Fab |
| --- | --- |
| B6 | 2.33 |
| AEMRCIPEWMCSGF (also called peptide-180 library clone) [Phage-2907] | 2.33 |
| LGLACIPEWMCVGF (also called peptide-180 library clone) [Phage-2908] | 2.33 |
| GEPVCKPAWMCEGF (also called peptide-180 library clone) [Phage-2909] | 2.33 |
| AVPLCMPKWMCTGF (also called peptide-180 library clone) [Phage-2910] | 2.33 |
| EKPVCVPSWMCTGF (also called peptide-180 library clone) [Phage-2911] | 2.33 |
| AVHYCQPSWMCTGF (also called peptide-180 library clone) [Phage-2912] | 2.33 |
| GERWCTPPWMCVGL (also called peptide-180 library clone) [Phage-2913] | 2.32 |
| GLALCKPEWMCIGF (also called peptide-180 library clone) [Phage-2914] | 2.32 |
| GGLLCKPAWMCNWL (also called peptide-180 library clone) [Phage-2915] | 2.32 |
| VDRMCVPKWMCEGL (also called peptide-180 library clone) [Phage-2916] | 2.32 |
| LDVLCKPTWMCMGF (also called peptide-180 library clone) [Phage-2917] | 2.32 |
| LPRICVPEWMCLGF (also called peptide-180 library clone) [Phage-2918] | 2.32 |
| VDPMCIPRWMCSFL (also called peptide-180 library clone) [Phage-2919] | 2.32 |

target: T3, PSMA Fab; test: clonal phage ELISA on biotinylated PSMA Fab captured on neutravidin plates, anti-M13-HRP detection, no PSMA antigen
T3 construct: Biotinylated and captured on neutravidin plates in the phage ELISA; also called anti-PSMA Fab; 006 PSMA Fab
Method: as §1

| Binder | phage binding ELISA signal |
| --- | --- |
| HDKLCRPAWMCNGF [Phage-2897] | 2.35 |
| NWPVCKPMWMCTGF [Phage-2898] | 2.34 |
| MEIRCTPPWMCMGF [Phage-2899] | 2.34 |
| PWLMCKPAWMCTGF [Phage-2900] | 2.34 |
| VTPKCVPMWMCAGF [Phage-2901] | 2.34 |
| QTVMCRPAWMCVGF [Phage-2902] | 2.34 |
| VTPACVPTWMCYGF [Phage-2903] | 2.34 |
| VFPACVPNWMCVGF [Phage-2904] | 2.33 |
| B7 | 2.33 |

target: T3, PSMA Fab; test: clonal phage ELISA on captured PSMA Fab, wells pre-incubated with PSMA antigen as competitor, anti-M13-HRP detection;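 also: crude clonal phage supernatants added without washing after the PSMA preincubation, comparison wells received blocking buffer alone without PSMA, bound phage read after washing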
Method: as §1

| Binder | phage binding ELISA signal in presence of PSMA |
| --- | --- |
| HDKLCRPAWMCNGF [Phage-2897] | 0.107 |
| NWPVCKPMWMCTGF [Phage-2898] | 0.155 |
| MEIRCTPPWMCMGF [Phage-2899] | 0.0795 |
| PWLMCKPAWMCTGF [Phage-2900] | 0.183 |
| VTPKCVPMWMCAGF [Phage-2901] | 0.123 |
| QTVMCRPAWMCVGF [Phage-2902] | 0.092 |
| VTPACVPTWMCYGF [Phage-2903] | 0.116 |
| VFPACVPNWMCVGF [Phage-2904] | 0.129 |
| B7 | 0.0875 |

target: T4, PSMA Fab (006 PSMA Fab); test: phage ELISA; clonal phage supernatant on biotinylated PSMA Fab captured on neutravidin plate, anti-M13 HRP detection
T4 construct: also called Anti-PSMA Fab; anti-PSMA Fab
Method: as §1

| Binder | Phage binding ELISA signal, Anti-PSMA Fab |
| --- | --- |
| LAIMCRPAWMCSGF (tested as crude phage supernatant) [Phage-2920] | 2.31 |
| ISHMCKPVWMCSGL (tested as crude phage supernatant) [Phage-2921] | 2.31 |
| B8 | 2.31 |
| VPKMCTPPWMCWGF (tested as crude phage supernatant) [Phage-2923] | 2.31 |
| VGKMCVPEWMCHGF (tested as crude phage supernatant) [Phage-2924] | 2.31 |
| TPIFCVPAWMCSGF (tested as crude phage supernatant) [Phage-2925] | 2.31 |
| VDRMCKPTWMCEGF (tested as crude phage supernatant) [Phage-2926] | 2.31 |
| IKPFCVPEWMCVAL (tested as crude phage supernatant) [Phage-2927] | 2.31 |
| IVPACKPVWMCDGF (tested as crude phage supernatant) [Phage-2928] | 2.31 |
| NIPHCVPAWMCIGF (tested as crude phage supernatant) [Phage-2929] | 2.31 |
| TQALCVPSWMCDGF (tested as crude phage supernatant) [Phage-2930] | 2.3 |
| VEQMCKPEWMCKGF (tested as crude phage supernatant) [Phage-2931] | 2.3 |
| MHMLCRPAWMCSGF (tested as crude phage supernatant) [Phage-2932] | 2.29 |
| VERACVPVWMCEGF (tested as crude phage supernatant) [Phage-2933] | 2.29 |

target: T4, PSMA Fab (006 PSMA Fab); test: phage ELISA; clonal phage on plate-captured PSMA Fab pre-incubated with PSMA antigen as competitor, anti-M13 HRP detection
Method: as §1

| Binder | Phage binding ELISA signal, Anti-PSMA Fab with PSMA antigen |
| --- | --- |
| LAIMCRPAWMCSGF (tested as crude phage supernatant) [Phage-2920] | 0.112 |
| ISHMCKPVWMCSGL (tested as crude phage supernatant) [Phage-2921] | 0.125 |
| B8 | 0.0854 |
| VPKMCTPPWMCWGF (tested as crude phage supernatant) [Phage-2923] | 0.0934 |
| VGKMCVPEWMCHGF (tested as crude phage supernatant) [Phage-2924] | 0.082 |
| TPIFCVPAWMCSGF (tested as crude phage supernatant) [Phage-2925] | 0.0946 |
| VDRMCKPTWMCEGF (tested as crude phage supernatant) [Phage-2926] | 0.12 |
| IKPFCVPEWMCVAL (tested as crude phage supernatant) [Phage-2927] | 0.121 |
| IVPACKPVWMCDGF (tested as crude phage supernatant) [Phage-2928] | 0.11 |
| NIPHCVPAWMCIGF (tested as crude phage supernatant) [Phage-2929] | 0.109 |
| TQALCVPSWMCDGF (tested as crude phage supernatant) [Phage-2930] | 0.0747 |
| VEQMCKPEWMCKGF (tested as crude phage supernatant) [Phage-2931] | 0.109 |
| MHMLCRPAWMCSGF (tested as crude phage supernatant) [Phage-2932] | 0.21 |
| VERACVPVWMCEGF (tested as crude phage supernatant) [Phage-2933] | 0.11 |
